The target in assay [1] is natural Fel d1 (cat (Felis domesticus)) (UniProt P30438). The assay is described as follows: cell-based or functional assay.
Assay [2] shares this target. In words: blocking ELISA, Fel d1 binding to plate-captured polyclonal human IgE.
In assay [3] the target is Fel d1 (B-A)-mmH (cat (Felis domesticus)). The assay is described as follows: blocking ELISA, Fel d1 binding to donor polyclonal cat-allergic IgE.
Assay [4] concerns the target natural Fel d1 (cat (Felis domesticus)) (UniProt P30438). In words: SPR Biacore T200 sequential binding, 25 µg/mL mAb2 over mAb1:Fel d1; coupled mAb1: REGN1909. (In general: In SPR one partner is held on a chip, and binding of the other changes the refractive index at the surface.)

pIC50: −log10 of the molar value. Some results are limits rather than exact numbers.

The text below walks through data of patent US20200255503A1.

A word on the pIC50: it is the IC50 on a negative log10 scale, so that one unit is a factor of ten.

Sequence of Fel d1 (B-A)-mmH (cat (Felis domesticus)) (chain, as listed by the source limits assumed): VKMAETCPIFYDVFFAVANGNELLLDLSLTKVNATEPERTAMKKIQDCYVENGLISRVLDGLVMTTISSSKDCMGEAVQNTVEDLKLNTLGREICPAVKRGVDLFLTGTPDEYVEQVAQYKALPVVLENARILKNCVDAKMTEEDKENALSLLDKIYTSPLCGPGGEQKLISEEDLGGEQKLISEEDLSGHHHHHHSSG

In assay [1], REGN1908-1909 returned a basophil activation test, CD63 upregulation on basophils of cat-allergic donors, IC50 of 0.01 nM; a basophil activation test, CD203c upregulation on basophils of cat-allergic donors, IC50 of 0.055 nM; a phosphoflow assay, phosphorylation of ERK in basophils, inhibition of more than 80%. Besides, in assay [2], the pIC50 was 9.35 and the maximum blockade came out at 83%. The substance further showed a pIC50 in assay [3] of 9.24.
Consider Non-binding Control mAb (antibody), for which, in assay [4], the Non-binding Control mAb (RU) is -64 RU.
